Test results from PMC8808184.
One block for each substance: values may come before it.

Experiments:
[1] = biological target: FN1–FN3 region of zebrafish CNTN4 (zebrafish); test: BLI; biotinylated zebrafish CNTN4(FN1–FN3) immobilised on streptavidin sensors, E1 domains of zebrafish APPb or APLP2 in solution; Octet K2; KD from the signal at equilibrium
[2] = biological target: FN1-FN3 domains of zebrafish CNTN4, biotinylated (zebrafish); test: BLI; Octet K2; biotinylated FN1-FN3 domains of zebrafish CNTN4 immobilised on streptavidin sensors, E1 domains of zebrafish APPb or APLP2 in solution; average constants of the kinetic fit
[3] = biological target: FN1-FN3 domains of zebrafish CNTN4, biotinylated (zebrafish); test: BLI; Octet K2; biotinylated FN1-FN3 domains of zebrafish CNTN4 immobilised on streptavidin sensors, E1 domains of zebrafish APPb or APLP2 in solution; steady state KD from the maximal signal at equilibrium against concentration
[4] = biological target: E1 domain of chicken APP, biotinylated (chicken); test: BLI; BLItz; biotinylated amyloid E1 domain ([…] nM) immobilised on streptavidin tips, CNTN FN1-FN3 in solution; room temperature; 150 mM NaCl, 10 mM Na-Hepes pH 7.5, 1 mg/ml BSA, 0.02% Tween-20; average constants of the kinetic fit (the paper says koff attained or exceeded the accuracy limits of the instruments)
[5] = biological target: E1 domain of chicken APP, biotinylated (chicken); test: BLI; BLItz; biotinylated amyloid E1 domain ([…] nM) immobilised on streptavidin tips, CNTN FN1-FN3 in solution; room temperature; 150 mM NaCl, 10 mM Na-Hepes pH 7.5, 1 mg/ml BSA, 0.02% Tween-20; steady state KD from the maximal signal at equilibrium against concentration
[6] = biological target: E1 domain of chicken APLP2, biotinylated (chicken); test: BLI; BLItz; biotinylated amyloid E1 domain ([…] nM) immobilised on streptavidin tips, CNTN FN1-FN3 in solution; room temperature; 150 mM NaCl, 10 mM Na-Hepes pH 7.5, 1 mg/ml BSA, 0.02% Tween-20; average constants of the kinetic fit (the paper says koff attained or exceeded the accuracy limits of the instruments)
[7] = biological target: E1 domain of human APP, biotinylated (human) (UniProt P05067); test: as above
[8] = biological target: E1 domain of human APLP1, biotinylated (human) (UniProt P51693); test: as above
[9] = biological target: E1 domain of human APP, biotinylated (human) (UniProt P05067); test: BLI; BLItz; biotinylated amyloid E1 domain ([…] nM) immobilised on streptavidin tips, CNTN FN1-FN3 in solution; room temperature; 150 mM NaCl, 10 mM Na-Hepes pH 7.5, 1 mg/ml BSA, 0.02% Tween-20; steady state KD from the maximal signal at equilibrium against concentration
[10] = biological target: E1 domain of human APLP1, biotinylated (human) (UniProt P51693); test: as above
[11] = biological target: E1 domain of human APLP2, biotinylated (human) (UniProt Q06481); test: BLI; BLItz; biotinylated amyloid E1 domain ([…] nM) immobilised on streptavidin tips, CNTN FN1-FN3 in solution; room temperature; 150 mM NaCl, 10 mM Na-Hepes pH 7.5, 1 mg/ml BSA, 0.02% Tween-20; average constants of the kinetic fit (the paper says koff attained or exceeded the accuracy limits of the instruments)
[12] = biological target: E1 domain of human APLP2, biotinylated (human) (UniProt Q06481); test: BLI; BLItz; biotinylated amyloid E1 domain ([…] nM) immobilised on streptavidin tips, CNTN FN1-FN3 in solution; room temperature; 150 mM NaCl, 10 mM Na-Hepes pH 7.5, 1 mg/ml BSA, 0.02% Tween-20; steady state KD from the maximal signal at equilibrium against concentration
[13] = biological target: E1 domain of mouse APP, biotinylated (mouse) (UniProt P12023); test: BLI; BLItz; biotinylated amyloid E1 domain ([…] nM) immobilised on streptavidin tips, CNTN FN1-FN3 in solution; room temperature; 150 mM NaCl, 10 mM Na-Hepes pH 7.5, 1 mg/ml BSA, 0.02% Tween-20; average constants of the kinetic fit (the paper says koff attained or exceeded the accuracy limits of the instruments)
[14] = biological target: E1 domain of zebrafish APPb, biotinylated (zebrafish); test: as above
[15] = biological target: E1 domain of chicken APLP2 (chicken); test: BLI; biotinylated E1 domain ([…] nM) immobilised on streptavidin tips, CNTN FN1–FN3 in solution; room temperature; 150 mM NaCl, 10 mM Na-Hepes pH 7.5, 1 mg/ml BSA, 0.02% Tween-20; BLItz or Octet K2; KD from the signal at equilibrium
[16] = biological target: E1 domain of chicken APP (chicken); test: as above
[17] = biological target: E1 domain of zebrafish APPb (zebrafish); test: as above
[18] = biological target: extracellular region of amyloid precursor protein (APP) fused to human IgG1 Fc or to FcYTS (UniProt P12023); test: AlphaScreen or HTRF; ectodomain-FcYTS on Strep-Tactin donor beads and ectodomain-Fc on protein A acceptor beads; dialysed HEK293 conditioned media; both tag orientations; 1 h at room temperature; 150 mM NaCl, 20 mM Na-Hepes pH 7.5, 2 mM CaCl2, 2 mM MgCl2, BSA, Triton X-100, Tween-20; a pair counts with signal over background of at least two in each orientation

Chain of E1 domain of human APLP1, biotinylated (human) (P51693 50-212): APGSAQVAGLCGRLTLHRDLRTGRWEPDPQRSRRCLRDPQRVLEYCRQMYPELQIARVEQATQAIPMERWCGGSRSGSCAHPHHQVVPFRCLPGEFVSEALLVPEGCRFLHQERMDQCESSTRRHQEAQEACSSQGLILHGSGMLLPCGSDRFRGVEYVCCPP
Chain of E1 domain of human APLP2, biotinylated (human) (Q06481 46-205): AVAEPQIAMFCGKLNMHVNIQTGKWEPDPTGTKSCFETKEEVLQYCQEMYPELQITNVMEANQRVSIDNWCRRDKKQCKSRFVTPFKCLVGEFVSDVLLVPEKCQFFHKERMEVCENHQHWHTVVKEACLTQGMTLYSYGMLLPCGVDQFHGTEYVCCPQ
Chain of FN1-FN3 region of mouse CNTN3 (Q07409 20-1002): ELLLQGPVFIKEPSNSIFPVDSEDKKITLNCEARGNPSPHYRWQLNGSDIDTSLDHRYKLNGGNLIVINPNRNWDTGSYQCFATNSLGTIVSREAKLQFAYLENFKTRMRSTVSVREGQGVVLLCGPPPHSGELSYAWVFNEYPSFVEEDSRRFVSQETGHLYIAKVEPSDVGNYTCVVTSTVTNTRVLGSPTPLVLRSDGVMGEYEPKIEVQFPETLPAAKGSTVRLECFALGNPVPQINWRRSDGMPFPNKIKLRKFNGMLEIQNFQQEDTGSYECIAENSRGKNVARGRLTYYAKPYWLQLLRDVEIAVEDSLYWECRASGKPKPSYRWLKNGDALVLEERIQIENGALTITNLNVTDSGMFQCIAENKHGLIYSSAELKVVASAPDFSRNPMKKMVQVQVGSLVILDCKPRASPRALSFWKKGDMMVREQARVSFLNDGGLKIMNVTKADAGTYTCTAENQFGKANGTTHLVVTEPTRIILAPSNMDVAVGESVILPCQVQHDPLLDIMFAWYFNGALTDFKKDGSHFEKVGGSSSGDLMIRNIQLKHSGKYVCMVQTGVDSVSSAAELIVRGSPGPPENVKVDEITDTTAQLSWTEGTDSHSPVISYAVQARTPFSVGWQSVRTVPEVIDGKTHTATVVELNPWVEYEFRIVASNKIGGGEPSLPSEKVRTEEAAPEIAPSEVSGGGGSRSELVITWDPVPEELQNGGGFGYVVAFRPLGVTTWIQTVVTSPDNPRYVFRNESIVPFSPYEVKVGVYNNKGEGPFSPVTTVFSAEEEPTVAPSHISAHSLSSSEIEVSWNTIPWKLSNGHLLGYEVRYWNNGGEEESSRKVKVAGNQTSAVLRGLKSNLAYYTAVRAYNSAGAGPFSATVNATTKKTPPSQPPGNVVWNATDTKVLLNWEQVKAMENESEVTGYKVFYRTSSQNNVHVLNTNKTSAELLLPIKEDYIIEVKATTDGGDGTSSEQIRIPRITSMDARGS
Chain of ectodomain of contactin 4 (CNTN4) fused to human IgG1 Fc or to FcYTS (Q69Z26 19-1000): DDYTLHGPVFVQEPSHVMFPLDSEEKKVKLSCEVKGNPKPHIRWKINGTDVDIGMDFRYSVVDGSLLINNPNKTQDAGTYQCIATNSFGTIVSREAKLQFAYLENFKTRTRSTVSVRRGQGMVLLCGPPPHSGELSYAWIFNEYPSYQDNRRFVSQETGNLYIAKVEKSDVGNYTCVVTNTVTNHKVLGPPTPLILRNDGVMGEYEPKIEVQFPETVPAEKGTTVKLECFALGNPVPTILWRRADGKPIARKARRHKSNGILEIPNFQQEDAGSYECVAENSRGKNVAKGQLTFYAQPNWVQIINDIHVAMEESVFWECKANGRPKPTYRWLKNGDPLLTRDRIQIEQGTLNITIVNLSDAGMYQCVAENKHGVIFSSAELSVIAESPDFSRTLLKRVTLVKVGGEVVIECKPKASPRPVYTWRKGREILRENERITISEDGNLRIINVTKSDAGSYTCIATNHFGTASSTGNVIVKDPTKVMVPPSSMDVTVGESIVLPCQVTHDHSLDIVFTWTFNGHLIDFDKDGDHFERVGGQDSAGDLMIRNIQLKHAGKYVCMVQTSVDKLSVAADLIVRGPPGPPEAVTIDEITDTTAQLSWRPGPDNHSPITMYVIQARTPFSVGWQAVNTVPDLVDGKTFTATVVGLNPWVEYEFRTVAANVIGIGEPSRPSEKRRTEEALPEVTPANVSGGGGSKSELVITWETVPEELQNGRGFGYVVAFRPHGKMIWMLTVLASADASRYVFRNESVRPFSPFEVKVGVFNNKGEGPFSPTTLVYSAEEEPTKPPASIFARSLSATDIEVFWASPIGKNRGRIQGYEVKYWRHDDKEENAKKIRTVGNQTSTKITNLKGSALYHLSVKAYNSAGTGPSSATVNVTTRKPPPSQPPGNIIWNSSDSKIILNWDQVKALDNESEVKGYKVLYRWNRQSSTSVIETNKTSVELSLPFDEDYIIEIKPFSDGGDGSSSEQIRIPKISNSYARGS

Substance: E1 domain of zebrafish APPb (domain or fragment)
Kd [2]: 0.11 µM | koff [2]: 0.03 s⁻¹ | kon [2]: 170000 M⁻¹ s⁻¹ | Kd [1]: 0.4 µM | Kd [3]: 0.401 µM

Substance: FN1-FN3 region of chicken CNTN4 (domain or fragment)
Kd [4]: 8.2 µM | koff [4]: 0.19 s⁻¹ | kon [4]: 33900 M⁻¹ s⁻¹ | Kd [6]: 26.6 µM | koff [6]: 0.33 s⁻¹ | kon [6]: 21600 M⁻¹ s⁻¹

Substance: FN1-FN3 region of chicken CNTN4 T751A, V752A (domain or fragment)
Kd [4]: 441 µM | koff [4]: 0.38 s⁻¹ | kon [4]: 10300 M⁻¹ s⁻¹ | Kd [5]: 20.9 µM

Substance: FN1-FN3 region of human CNTN4 (from UniProt Q8IWV2 19-1000) (domain or fragment)
Kd [7]: 18.7 µM | koff [7]: 0.33 s⁻¹ | kon [7]: 19200 M⁻¹ s⁻¹ | Kd [11]: 4.8 µM | koff [11]: 0.2 s⁻¹ | kon [11]: 43000 M⁻¹ s⁻¹ | Kd [8]: 0.4 µM | koff [8]: 0.03 s⁻¹ | kon [8]: 64500 M⁻¹ s⁻¹ | Kd [9]: 8 µM | Kd [10]: 1.5 µM

Substance: FN1-FN3 region of human CNTN5 (from UniProt O94779 19-1072) (domain or fragment)
Kd [11]: 36.6 µM | koff [11]: 0.37 s⁻¹ | kon [11]: 9440 M⁻¹ s⁻¹ | Kd [8]: 9.8 µM | koff [8]: 0.17 s⁻¹ | kon [8]: 17700 M⁻¹ s⁻¹ | Kd [12]: 38.6 µM | Kd [10]: 10.9 µM

Substance: FN1-FN3 region of mouse CNTN3 (from UniProt Q07409 20-1002) (domain or fragment)
Kd [13]: 2.9 µM | koff [13]: 0.15 s⁻¹ | kon [13]: 56200 M⁻¹ s⁻¹

Substance: FN1–FN3 region of chicken CNTN4 (domain or fragment)
Kd [15]: 28.2 µM | Kd [16]: 5.4 µM

Substance: FN1–FN3 region of chicken CNTN4, Y781A and E786A (domain or fragment)
Kd [16]: 115 µM

More lines, now with the values ahead:

Kd [1]: 21.4 µM
Substance: E1 domain of zebrafish APLP2 (domain or fragment)

Kd [4]: 182 µM | koff [4]: 0.9 s⁻¹ | kon [4]: 7250 M⁻¹ s⁻¹ | Kd [5]: 46.8 µM
Substance: FN1-FN3 region of chicken CNTN3 (domain or fragment)

Kd [4]: 330 µM | koff [4]: 0.59 s⁻¹ | kon [4]: 5450 M⁻¹ s⁻¹ | Kd [5]: 115 µM
Substance: FN1-FN3 region of chicken CNTN4 Y781A, E786A (domain or fragment)

Kd [7]: 403 µM | koff [7]: 0.79 s⁻¹ | kon [7]: 2560 M⁻¹ s⁻¹ | Kd [8]: 4.5 µM | koff [8]: 0.1 s⁻¹ | kon [8]: 2190 M⁻¹ s⁻¹ | Kd [9]: 63.3 µM | Kd [10]: 9.1 µM
Substance: FN1-FN3 region of human CNTN3 (from UniProt Q9P232 20-1002) (domain or fragment)

Kd [14]: 64.4 µM | koff [14]: 0.59 s⁻¹ | kon [14]: 9560 M⁻¹ s⁻¹
Substance: FN1-FN3 region of zebrafish CNTN5 (domain or fragment)

fold reduction in affinity against wild-type chicken CNTN4 [16]: 4 fold
Substance: FN1–FN3 region of chicken CNTN4, T751A and V752A (domain or fragment)

Kd [17]: 26.8 µM
Substance: FN1–FN3 region of zebrafish CNTN5 (domain or fragment)

luminescent signal [18]: 1.56e+06 | luminescent signal divided by the signal of APP-FcYTS with Fc only [18]: 848
Substance: ectodomain of contactin 4 (CNTN4) fused to human IgG1 Fc or to FcYTS (from UniProt Q69Z26 19-1000) (Fc fusion)
